Experimental data published in the supplement of paper PMC7125110.
± gives the standard error. Variants at the floor of the assay were thinned out.

B1: glmS ribozyme (parent)
chain: AUAAAAGCGCCAGAACUACAGAAAUGUAGUUGACGAGGAGGAGGUUUAUCGAAUUUUCGGCGGAUGCCUCCAAA

Columns and labels:
Conditions in all cases: with glucosamine-6-phosphate
glucosamine-6-phosphate [1] = variants of: B1; assay: self-cleavage kobs at 40 uM GlcN6P; higher = faster cleavage; RNA array
In short: (§1)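 Glucosamine-6-phosphate in HEPES/KCl/Mg(OAc)2 buffer, at 40 μM to 10 mM, was flowed over barcoded ribozyme variants transcribed in situ by E. coli RNA polymerase on sequenced MiSeq chips. Tracking was through a hybridised Cy3 probe at 37 °C. kobs, kcat and KM came from exponential decay fits and weighted Michaelis–Menten fits of normalised per-tile medians.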

glucosamine-6-phosphate [2] = variants of: B1; assay: self-cleavage kobs at 640 uM GlcN6P; higher = faster cleavage; RNA array
In short: as §1

glucosamine-6-phosphate [3] = variants of: B1; assay: self-cleavage kobs at 2500 uM GlcN6P; higher = faster cleavage; RNA array
In short: as §1

glucosamine-6-phosphate [4] = variants of: B1; assay: self-cleavage kobs at 10000 uM GlcN6P; higher = faster cleavage; RNA array
In short: as §1

glucosamine-6-phosphate [5] = variants of: B1; assay: self-cleavage kobs at 160 uM GlcN6P; higher = faster cleavage; RNA array
In short: as §1

Row | Variant | self-cleavage kobs at 40 uM GlcN6P (glucosamine-6-phosphate [1]) [s⁻¹] | self-cleavage kobs at 640 uM GlcN6P (glucosamine-6-phosphate [2]) [s⁻¹] | self-cleavage kobs at 2500 uM GlcN6P (glucosamine-6-phosphate [3]) [s⁻¹] | self-cleavage kobs at 10000 uM GlcN6P (glucosamine-6-phosphate [4]) [s⁻¹] | self-cleavage kobs at 160 uM GlcN6P (glucosamine-6-phosphate [5]) [s⁻¹]
1 | G40U U54G | 0.000133 ± 1.9e-05 | 0.00124 ± 0.00029 | 0.00192 ± 0.00049 | 0.00364 ± 0.00066 | 
2 | U55C G62A | < 1e-05 | < 1e-05 | < 1e-05 | < 1e-05 | < 1e-05
3 | A52C G60U | < 1e-05 |  |  | < 1e-05 | 
4 | C8U C50U C58G C61U C67U C68G | 0.000528 ± 0.0001 |  |  | 0.00105 ± 0.00018 | 
5 | C8U A14G A42C | < 1e-05 |  | < 1e-05 |  | < 1e-05
6 | C8A G40U C61U U69G | < 1e-05 |  |  | < 1e-05 | 
7 | G35U G63U G66C C67A | < 1e-05 |  |  | < 1e-05 | 
8 | G63U G66C | < 1e-05 |  | < 1e-05 | < 1e-05 | < 1e-05
9 | G63U G66U | < 1e-05 | < 1e-05 | < 1e-05 | < 1e-05 | 
10 | A33C U65G | < 1e-05 | < 1e-05 |  |  | < 1e-05
11 | G7A C8U | < 1e-05 |  |  |  | 
12 | C8G C34U A42U | < 1e-05 |  |  |  | 
13 | G13A A39U C61U | < 1e-05 |  | < 1e-05 |  | 
14 | A15C A52U A53G U56C | < 1e-05 |  |  | < 1e-05 | 
15 | A64U C68A | < 1e-05 | < 1e-05 |  | < 1e-05 | 
16 | U47A C58U | < 1e-05 |  |  | 6e-05 ± 2.1e-05 | 
17 | G40A A48C U57A C61G | < 1e-05 |  | < 1e-05 |  | 
18 | A14C G60C | < 1e-05 |  | < 1e-05 | < 1e-05 | < 1e-05
19 | G26A A39U G40C | 5.34e-05 ± 1.4e-05 | 0.000262 ± 8.2e-05 | 0.000935 ± 0.00028 |  | 
20 | U65A C70U | 0.000142 ± 1.8e-05 | 0.000871 ± 0.00012 | 0.00273 ± 0.0009 | 0.00403 ± 0.0008 | 0.00024 ± 4.6e-05
21 | A6C G66C C68G | < 1e-05 |  |  |  | 
22 | A53G C71G | 0.000153 ± 2e-05 | 0.000377 ± 5.8e-05 | 0.00062 ± 0.00013 |  | 
23 | C10G U47A | < 1e-05 | < 1e-05 |  |  | < 1e-05
24 | G32U A36G U45C C68G | < 1e-05 |  |  |  | 
